Drawing on publication PMC4839745, this text covers percent decrease of association (tERK:HARE ratio) against WT HARE for 2 substances.

The target in the experiment is HARE(ΔM3) single-motif deletion cytoplasmic domain mutant lacking NPLY2519. The experiment in a line: co-IP; HARE variants precipitated from cell lysate (300 μg protein) with goat anti-V5 Ab (2 μg/ml) and Protein A/G Plus Agarose, 4°C; blot with anti-tERK1/2 Ab; cells incubated with or without 10 μg/ml (709 nM) UFH for 20 min; Lysis Buffer with 0.5% Nonidet P-40.

In the case of “ERK1 (of ERK1/2, p44/42) (from UniProt P27361 1-379) (enzyme)”, the percent decrease of association (tERK:HARE ratio) against WT HARE stood at 67%. For “ERK2 (of ERK1/2, p44/42) (from UniProt P28482 1-360) (enzyme)”, the percent decrease of association (tERK:HARE ratio) against WT HARE is 67%.
